Data from paper PMC4856987.

T1: BmSTPR (FMBP-1 STPR domain) (Bombyx mori, UniProt Q5FBS0 99-193)
T1 sequence: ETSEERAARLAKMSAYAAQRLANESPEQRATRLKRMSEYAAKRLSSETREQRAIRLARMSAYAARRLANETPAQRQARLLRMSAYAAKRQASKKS

T2: BmSTPR with R1 deleted (R2-R4) (Bombyx mori, UniProt Q5FBS0 122-193)
T2 sequence: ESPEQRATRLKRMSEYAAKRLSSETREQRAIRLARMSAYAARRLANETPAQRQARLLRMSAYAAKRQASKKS


Legend:
[1] = target: T1, BmSTPR (FMBP-1 STPR domain); assay: ITC
[2] = target: T2, BmSTPR with R1 deleted (R2-R4); assay: ITC
[3] = target: T1, BmSTPR (FMBP-1 STPR domain); assay: X-ray crystal structure

Row | Binder | Kd [1] [nM] | other results
1 | (auac/gtat)4 (dsDNA, t2 of each unit to (deoxy)uridylate) DNA 1: AUACAUACAUACAUAC DNA 2: GTATGTATGTATGTAT | 183 | –
2 | (gcca)3 (dsDNA) DNA 1: GCCAGCCAGCCA DNA 2: TGGCTGGCTGGC | 44600 ± 14300 | –
3 | 20-bp (+290) (dsDNA) DNA 1: AGTATTTACATAGATTCATC DNA 2: GATGAATCTATGTAAATACT | – | Kd [2]: 547 nM
4 | 18-bp DNA, (atac)4 plus one terminal nt each side (dsDNA) DNA 1: CATACATACATACATACA DNA 2: TGTATGTATGTATGTATG | – | binding result [3]: binds
